Reference: patent US20190022211A1 (CELLTRION, published 2019)
“And” between values parts separate entries of the source, which are not always exact repeats. Equal values may be shown once.

T1: G protein of rabies virus ERA, on virus (rabies virus, UniProt P03524 20-524)
T1 sequence: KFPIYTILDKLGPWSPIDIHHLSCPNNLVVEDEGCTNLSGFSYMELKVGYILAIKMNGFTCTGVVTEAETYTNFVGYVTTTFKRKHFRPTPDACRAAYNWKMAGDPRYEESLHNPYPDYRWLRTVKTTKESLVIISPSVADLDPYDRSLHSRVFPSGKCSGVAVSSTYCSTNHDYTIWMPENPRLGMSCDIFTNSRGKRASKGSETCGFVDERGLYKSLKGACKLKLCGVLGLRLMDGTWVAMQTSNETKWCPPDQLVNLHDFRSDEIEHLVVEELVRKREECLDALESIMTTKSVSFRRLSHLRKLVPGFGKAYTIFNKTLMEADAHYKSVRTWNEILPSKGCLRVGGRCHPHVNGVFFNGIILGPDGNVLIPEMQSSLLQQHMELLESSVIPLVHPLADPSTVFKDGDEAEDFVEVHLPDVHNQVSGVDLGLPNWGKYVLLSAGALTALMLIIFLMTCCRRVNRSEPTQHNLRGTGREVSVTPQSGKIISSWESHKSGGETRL

B1: antibody 1 (antibody, V domains shown)
VH: VQLLQESGPGLAKPSETLSLICTVSGGSISRRRDYWGWIRQPPGRGLEWIGSFFHRGSTYYNPSLESRVSISVDPSKNQFSLHLSSVTVADTAVYYCARHPSTPFAEYLLLPDAFDSWGQGTLVTVSS
VL: DIVMTQSPATLSVSPGERATLSCRASQSVRSSLAWYQQRPGQAPRLLISGASTRATDIPARLSGSGSGTEFTLTVSSLQSEDFAVYYCQQYSDWPLTFGGGTKVEIKR
B2: antibody 2 (antibody, V domains shown)
VH: EVQLVESGAEVKKPGASVKVSCKASGYTFTSYDISWVRQAPGQGLEWMGWISTYKGNTNFAQKFQDRVTLTTDTSTTTAYMELRSLTSDDTAVYYCARAKSHPFYDFWSAYYVPGAFDIWGQGTVVTVSS
VL: not shown

Key:
Assay in all cases: cell-based or functional assay
[1] = molecular target: G protein of rabies virus MI1625 (Bat, Tennessee, USA), on virus (rabies virus)
[2] = molecular target: G protein of rabies virus TN 132 (Bat, Tennessee, USA), on virus (rabies virus)
[3] = molecular target: G protein of rabies virus TX SK 4384 (Skunk, Texas, USA), on virus (rabies virus)
[4] = molecular target: G protein of rabies virus AL Bat (Bat, California, USA), on virus (rabies virus)
[5] = molecular target: G protein of rabies virus Dog thai (Dog, Thailand), on virus (rabies virus)
[6] = molecular target: G protein of rabies virus 857r (Raccoon dog, Russia, Far East), on virus (rabies virus)
[7] = molecular target: G protein of rabies virus Mongoose PR (Mongoose, Puerto-Rico), on virus (rabies virus)
[8] = molecular target: G protein of rabies virus DR MX (Bat, Mexico), on virus (rabies virus)
[9] = molecular target: G protein of rabies virus RVHN (Human (ex, wolf), Russia, Arctic), on virus (rabies virus)
[10] = molecular target: G protein of rabies virus RAC (Raccoon, Georgia, USA), on virus (rabies virus)
[11] = molecular target: G protein of EBLV 1 A09-3484 (Genotype 5), on virus (EBLV 1, Genotype 5)
[12] = molecular target: G protein of rabies virus VA 399 (Bat, Virginia, USA), on virus (rabies virus)
[13] = molecular target: G protein of rabies virus TX Coyote (Coyote, Texas, USA), on virus (rabies virus)
[14] = molecular target: G protein of rabies virus Bat Ef (Bat, Pennsylvania, USA), on virus (rabies virus)
[15] = molecular target: G protein of rabies virus TN-269 (Bat, Tennessee, USA), on virus (rabies virus)
[16] = molecular target: G protein of rabies virus Rv342 China (Cow/dog, China), on virus (rabies virus)
[17] = molecular target: G protein of rabies virus Dog Arg (Dog, Argentina), on virus (rabies virus)
[18] = molecular target: G protein of rabies virus Myotis (Bat, Washington, USA), on virus (rabies virus)
[19] = molecular target: T1, G protein of rabies virus ERA, on virus

| Binder | neutralizing activity (RFFIT) [1] | neutralizing activity (RFFIT), Titer [1] | neutralizing activity (RFFIT) [2] | neutralizing activity (RFFIT), Titer [2] | neutralizing activity (RFFIT) [3] | neutralizing activity (RFFIT), Titer [3] | neutralizing activity (RFFIT) [4] | neutralizing activity (RFFIT), Titer [4] | neutralizing activity (RFFIT) [5] | neutralizing activity (RFFIT), Titer [5] | neutralizing activity (RFFIT) [6] | neutralizing activity (RFFIT), Titer [6] | neutralizing activity (RFFIT) [7] | neutralizing activity (RFFIT), Titer [7] | neutralizing activity (RFFIT) [8] | neutralizing activity (RFFIT), Titer [8] | neutralizing activity (RFFIT) [9] | neutralizing activity (RFFIT), Titer [9] | neutralizing activity (RFFIT) [10] | neutralizing activity (RFFIT), Titer [10] | also measured |
| --- | --- | --- | --- | --- | --- | --- | --- | --- | --- | --- | --- | --- | --- | --- | --- | --- | --- | --- | --- | --- | --- |
| B1 | 0.39 IU/mL and 1960 IU/mg | 11 | 2 IU/mL and 10000 IU/mg | 56 | 1070 IU/mg and 0.21 IU/mL | 75 | 7.6 IU/mL and 7590 IU/mg | 1100 | 2.3 IU/mL and 2290 IU/mg | 320 | 2.8 IU/mL and 2800 IU/mg | 56 | 0.39 IU/mL and 1930 IU/mg | 54 | 2.4 IU/mL and 2380 IU/mg | 250 | 0.4 IU/mL and 2000 IU/mg | 54 | 0.7 IU/mL and 3520 IU/mg | 95 | neutralizing activity (RFFIT) [11]: 0.56 IU/mL and 2800 IU/mg; neutralizing activity (RFFIT), Titer [11]: 56; neutralizing activity (RFFIT) [12]: 0.56 IU/mL and 2780 IU/mg; neutralizing activity (RFFIT), Titer [12]: 10; neutralizing activity (RFFIT) [13]: 0.33 IU/mL and 1650 IU/mg; neutralizing activity (RFFIT), Titer [13]: 56; neutralizing activity (RFFIT) [14]: 1.05 IU/mL and 5260 IU/mg; neutralizing activity (RFFIT), Titer [14]: 50; neutralizing activity (RFFIT) [15]: 1.16 IU/mL and 5800 IU/mg; neutralizing activity (RFFIT), Titer [15]: 145; neutralizing activity (RFFIT) [16]: 0.5 IU/mL and 2540 IU/mg; neutralizing activity (RFFIT), Titer [16]: 280; neutralizing activity (RFFIT) [17]: 0.36 IU/mL and 1810 IU/mg; neutralizing activity (RFFIT), Titer [17]: 145; neutralizing activity (RFFIT) [18]: 1.64 IU/mL and 8210 IU/mg; neutralizing activity (RFFIT), Titer [18]: 230; neutralizing activity (RFFIT) [19]: 0.36 IU/mL and 1790 IU/mg; neutralizing activity (RFFIT), Titer [19]: 50 |
| B2 | 2.5 IU/mL and 12500 IU/mg | 70 | 10 IU/mL and 50000 IU/mg | 280 | 3570 IU/mg and 0.71 IU/mL | 250 | 7.6 IU/mL and 7590 IU/mg | 1100 | 9.3 IU/mL and 9290 IU/mg | 1300 | 2.7 IU/mL and 2700 IU/mg | 54 | 0.4 IU/mL and 2000 IU/mg | 56 | 1.7 IU/mL and 1710 IU/mg | 180 | 0.31 IU/mL and 1560 IU/mg | 42 | 1.07 IU/mL and 5370 IU/mg | 145 | neutralizing activity (RFFIT) [11]: 5.4 IU/mL and 27000 IU/mg; neutralizing activity (RFFIT), Titer [11]: 540; neutralizing activity (RFFIT) [12]: 2.78 IU/mL and 13900 IU/mg; neutralizing activity (RFFIT), Titer [12]: 50; neutralizing activity (RFFIT) [13]: 1 IU/mL and 5000 IU/mg; neutralizing activity (RFFIT), Titer [13]: 170; neutralizing activity (RFFIT) [14]: 1.05 IU/mL and 5260 IU/mg; neutralizing activity (RFFIT), Titer [14]: 50; neutralizing activity (RFFIT) [15]: 3.12 IU/mL and 15600 IU/mg; neutralizing activity (RFFIT), Titer [15]: 390; neutralizing activity (RFFIT) [16]: 2.4 IU/mL and 11800 IU/mg; neutralizing activity (RFFIT), Titer [16]: 1300; neutralizing activity (RFFIT) [17]: 0.43 IU/mL and 2120 IU/mg; neutralizing activity (RFFIT), Titer [17]: 170; neutralizing activity (RFFIT) [18]: 2 IU/mL and 10000 IU/mg; neutralizing activity (RFFIT), Titer [18]: 280; neutralizing activity (RFFIT) [19]: 1.79 IU/mL and 8930 IU/mg; neutralizing activity (RFFIT), Titer [19]: 250 |
